Biological target: RNase HI catalytic domain (wild-type) (Bacillus halodurans, UniProt Q9KEI9 59-196)
Test: EMSA; 10 uM DNA, 50 uM protein; 100 mM K+; Native 10% PAGE in 1X TBE, 20 mM potassium phosphate, 100 mM KCl, pH 7.0; UV shadowing; temperature not stated
Details: protein: recombinant

Chain of RNase HI catalytic domain (wild-type) (Q9KEI9 59-196): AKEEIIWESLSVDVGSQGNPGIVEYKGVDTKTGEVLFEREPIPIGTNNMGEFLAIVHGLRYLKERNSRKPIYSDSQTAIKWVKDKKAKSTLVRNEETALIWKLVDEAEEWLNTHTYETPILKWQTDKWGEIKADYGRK

Binder | binding result (parallel G4 with 3' single-stranded tail) | binding result (single strand)
TTGGGTGGGTGGGTGGGTTCAACGACGACGGCATCATC (structured_DNA) [B1] | no binding | –
TTGACTAAGTGCCTTAGTTCAACGACGACGGCATCATC (ssDNA) [B0] | – | no binding

Source: paper PMC6520340, “Development of a ribonuclease containing a G4-specific binding motif for programmable RNA cleavage”
